Usually stoichiometry N stands for the number of molecules, sites or subunits per partner or assembly.

The target of data set [1] is FMN-containing OdAu1aLOV (isolated LOV domain of Ochromonas danica Aureochrome1a) (Ochromonas danica). In words: SEC; analytical gel filtration of OdAu1aLOV in the lit state (column illuminated with 450 nm LEDs); HEPES 20 mM pH 7.4, NaCl 100 mM, MgCl2 10 mM, TCEP 0.3 mM; 100 μM protein. On the technique in general: In gel filtration, larger molecules generally elute earlier.

Data set [2] shares this target. Briefly: SEC; concentration-dependent analytical gel filtration of lit-state OdAu1aLOV, 200 to 10 μM (Figure S6); column illuminated with 450 nm LEDs.
For data set [3], the target named is T1, OdAu1abZIPLOV (Aureochrome1a bZIP-LOV), 5dFMN cofactor (Ochromonas danica, UniProt C5NSW6). Briefly: EMSA; dark state; single shifted band, no supershift; DNA binding buffer: 20 mM HEPES pH 7.4, 100 mM NaCl, 10 mM MgCl2, 1 mM TCEP; EMSA: 20 nM DNA, 10% glycerol, BSA, poly-dI-dC, at 4 C; SEC samples incubated 30 mi. For orientation: A gel shift assay detects complexes by their altered migration in electrophoresis.

Data set [4] addresses T2, OdAu1abZIPLOV (Aureochrome1a bZIP-LOV), FMN cofactor (Ochromonas danica, UniProt C5NSW6). Briefly: EMSA; lit state (450 nm); supershifted band, putative 2:1 complex; DNA binding buffer: 20 mM HEPES pH 7.4, 100 mM NaCl, 10 mM MgCl2, 1 mM TCEP; EMSA: 20 nM DNA, 10% glycerol, BSA, poly-dI-dC, at 4 C; SEC samples incubated 30 mi.
Data set [5] deals with T3, FMN-containing OdAu1a_(bZIPLOV) (bZIP and LOV domains of Ochromonas danica Aureochrome1a) (Ochromonas danica). Briefly: SEC; analytical gel filtration of OdAu1a_(bZIPLOV) in the dark state (Figures S7-S9).
In data set [6] the target is T3, FMN-containing OdAu1a_(bZIPLOV) (bZIP …). In words: SEC; analytical gel filtration of OdAu1a_(bZIPLOV) in the lit state (450 nm LEDs; Figures S7-S9).
Data set [7] deals with T4, 5dFMN-containing OdAu1a_(bZIPLOV) (bZIP and LOV domains of Ochromonas danica Aureochrome1a refolded with 5-deazaflavin mononucleotide) (Ochromonas danica). Briefly: SEC; analytical gel filtration of OdAu1a_(bZIPLOV) in the dark state (Figures S7-S9).
The target of data set [8] is T4, 5dFMN-containing OdAu1a_(bZIPLOV) (bZIP …). Briefly: SEC; analytical gel filtration of OdAu1a_(bZIPLOV) in the lit state (450 nm LEDs; Figures S7-S9).
Data set [9] addresses T1, OdAu1abZIPLOV (Aureochrome1a bZIP-LOV), …. Briefly: size-exclusion chromatography; dark state, 50 uM protein; DNA binding buffer: 20 mM HEPES pH 7.4, 100 mM NaCl, 10 mM MgCl2, 1 mM TCEP; EMSA: 20 nM DNA, 10% glycerol, BSA, poly-dI-dC, at 4 C; SEC samples incubated 30 mi.
Data set [10] concerns the target T2, OdAu1abZIPLOV (Aureochrome1a bZIP-LOV), …. The data set is described as above.

For “FMN-containing OdAu1aLOV (isolated LOV domain of Ochromonas danica Aureochrome1a) (domain or fragment)”, the stoichiometry N in data set [1] and in data set [2] was 2 each time.

B1: OdAu1a recognition DNA, TAMRA (dsDNA)
DNA 1: TGTAGCGTCTGACGTGGTTCCCAC
DNA 2: GTGGGAACCACGTCAGACGCTACA
Regarding B1, the binding result in [3] and in data set [4] was “binds” each time.

B2: FMN-containing OdAu1a_(bZIPLOV) (bZIP and LOV domains of Ochromonas danica Aureochrome1a) (domain or fragment)
chain: EEQKIERRERNREHAKRSRVRKKFLLESLQHSVRALEEENEKLRNAIRENLQGEAEQLLTRCSCGGPSVIASDPNTATRTLDDPDYSLVKALQTAQQNFVISDPSIPDNPIVYASQGFLTLTGYALSEVLGRNCRFLQGPETDPKAVEKVRKGLERGEDTTVVLLNYRKDGSTFWNQLFIAALRDGEGNVVNYLGVQCKVSEDYAKAFLKNEENEK
modifications: not checked
Regarding B2, the stoichiometry N in [5] and in [6] was 2 throughout.

B3: 5dFMN-containing OdAu1a_(bZIPLOV) (bZIP and LOV domains of Ochromonas danica Aureochrome1a refolded with 5-deazaflavin mononucleotide) (domain or fragment)
chain: B2 chain
modifications: not checked
Consider B3, for which the stoichiometry N in data set [7] and in data set [8] was 2 each time.

B4: OdAu1a recognition DNA, 24 bp, unlabelled (dsDNA)
DNA 1: TGTAGCGTCTGACGTGGTTCCCAC
DNA 2: GTGGGAACCACGTCAGACGCTACA
With B4, the binding result in [9] and in data set [10] was “binds” throughout.

(Values after paper PMC7007005.)
